Where “and” joins values, the source holds several entries; their conditions need not be identical. Identical values can stand only once. Entries after “also recorded” stand apart in the source; their conditions may differ. Like-named read-outs stand apart in the source and are kept apart here.
Assays:
[1] = biological target: FBF-2 RBD (Caenorhabditis elegans) (UniProt Q09312); test: ITC; conditions: cited from earlier work
[2] = biological target: T1, FBF-2 RBD + CT (FBF-2 residues 164-632) (C. elegans, UniProt Q09312 164-632); test: cell-based or functional assay
T1 sequence (looked up): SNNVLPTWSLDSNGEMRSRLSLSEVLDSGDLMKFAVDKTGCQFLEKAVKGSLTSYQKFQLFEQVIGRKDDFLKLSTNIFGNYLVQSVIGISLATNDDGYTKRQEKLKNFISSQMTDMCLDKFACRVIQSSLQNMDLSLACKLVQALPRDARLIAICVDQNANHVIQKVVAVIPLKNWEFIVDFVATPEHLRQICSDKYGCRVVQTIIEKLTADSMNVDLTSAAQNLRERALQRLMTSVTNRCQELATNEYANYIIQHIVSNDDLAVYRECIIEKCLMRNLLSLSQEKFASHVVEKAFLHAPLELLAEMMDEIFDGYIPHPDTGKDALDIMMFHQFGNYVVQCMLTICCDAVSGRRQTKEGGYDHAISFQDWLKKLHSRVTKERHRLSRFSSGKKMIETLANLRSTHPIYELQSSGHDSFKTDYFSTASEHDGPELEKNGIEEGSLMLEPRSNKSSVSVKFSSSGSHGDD

[3] = biological target: T2, FBF-2 RBD (FBF-2 residues 164-575) (C. elegans, UniProt Q09312 164-575); test: ITC
T2 chain: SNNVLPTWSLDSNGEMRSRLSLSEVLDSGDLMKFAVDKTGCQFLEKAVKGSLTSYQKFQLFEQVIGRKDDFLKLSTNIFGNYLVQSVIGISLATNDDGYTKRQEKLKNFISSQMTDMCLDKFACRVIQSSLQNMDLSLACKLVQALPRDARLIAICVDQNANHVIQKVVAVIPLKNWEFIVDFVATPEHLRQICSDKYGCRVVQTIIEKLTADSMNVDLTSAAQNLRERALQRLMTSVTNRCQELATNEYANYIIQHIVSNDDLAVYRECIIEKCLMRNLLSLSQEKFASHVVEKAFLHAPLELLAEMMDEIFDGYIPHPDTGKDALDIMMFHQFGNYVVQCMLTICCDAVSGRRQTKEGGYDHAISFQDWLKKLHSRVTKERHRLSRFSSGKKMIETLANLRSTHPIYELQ

FBF-2 RBD + CT L610A [4] = biological target: T3, FBF-2 RBD + CT L610A (C. elegans, UniProt Q09312 164-632, L610A); test: ITC
T3 sequence: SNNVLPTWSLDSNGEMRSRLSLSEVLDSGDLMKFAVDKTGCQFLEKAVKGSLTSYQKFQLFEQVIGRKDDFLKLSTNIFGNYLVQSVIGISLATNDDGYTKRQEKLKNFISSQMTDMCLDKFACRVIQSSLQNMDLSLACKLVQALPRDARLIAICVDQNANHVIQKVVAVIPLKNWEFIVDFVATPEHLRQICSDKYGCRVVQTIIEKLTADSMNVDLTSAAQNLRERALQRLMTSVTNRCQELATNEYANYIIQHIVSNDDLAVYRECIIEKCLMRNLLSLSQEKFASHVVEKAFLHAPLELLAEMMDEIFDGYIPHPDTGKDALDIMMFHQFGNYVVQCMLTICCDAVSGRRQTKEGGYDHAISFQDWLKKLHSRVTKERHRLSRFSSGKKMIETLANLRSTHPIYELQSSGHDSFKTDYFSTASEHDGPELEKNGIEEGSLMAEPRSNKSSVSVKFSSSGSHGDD

[5] = biological target: T2, FBF-2 RBD (FBF-2 residues 164-575); test: ITC
FBF-2 RBD + CT L610A [6] = biological target: T4, FBF-2 RBD + CT L610A (C. elegans, UniProt Q09312 164-632, L610A); test: ITC; peptide (100–400 µM) titrated from the syringe into the cell containing FBF-2 (10–30 µM); 20 °C; 20 mM HEPES pH 7.4, 150 mM NaCl, 0.5 mM TCEP; no RNA; one-site model; mean of two replicates; conditions: both partners purified
T4 construct: source: E. coli, expressed and purified like wild type proteins; not shown: His6-SUMO, N-terminal, cleaved
T4 sequence (looked up): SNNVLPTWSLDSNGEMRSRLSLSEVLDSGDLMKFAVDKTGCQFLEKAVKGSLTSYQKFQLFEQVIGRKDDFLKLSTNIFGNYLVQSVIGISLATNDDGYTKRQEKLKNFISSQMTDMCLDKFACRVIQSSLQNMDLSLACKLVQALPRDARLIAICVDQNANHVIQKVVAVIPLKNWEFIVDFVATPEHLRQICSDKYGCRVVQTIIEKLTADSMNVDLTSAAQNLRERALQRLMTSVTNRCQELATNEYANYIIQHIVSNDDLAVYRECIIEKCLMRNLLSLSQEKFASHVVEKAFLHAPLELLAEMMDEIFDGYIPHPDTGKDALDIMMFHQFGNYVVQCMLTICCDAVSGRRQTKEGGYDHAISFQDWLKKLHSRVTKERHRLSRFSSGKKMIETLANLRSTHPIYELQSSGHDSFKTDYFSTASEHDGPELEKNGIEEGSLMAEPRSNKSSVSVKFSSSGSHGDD

C. elegans = conditions: cited from earlier work; for sterile progeny: fbf-1 loss-of-function background, failure to initiate oogenesis, ref 41 (Wang, et al. 2016); for germline phenotype: animals expressing mutant FBF-2, unpublished, ref personal communication, Kimble lab
Excerpt: Our previous structural and biochemical studies relied on FBF-2^164–575, a fragment with the RBD that lacks its intrinsically disordered C-terminal tail but retains its in vivo RNA-binding specificity (Fig. 1a)[17],[18],[36],[39],[40]. […] A worm strain that expresses truncated FBF-2 lacking the C-terminal 26 residues (607-632) was generated in an fbf-1 loss-of-function background. Approximately 11% of the mutant progeny were sterile due to failure to initiate oogenesis, indicating a germline defect. In contrast, worms expressing full-l ... || In the PUF hub, FBF-1 and FBF-2 play a more prominent role than PUF-3 and PUF-11[55]. FBF-1 and FBF-2 amino acid sequences are 91% identical and have largely overlapping functions. […] When the CT of FBF-1 is replaced with the FBF-2 CT, the chimeric protein produces a progenitor region that m ... || page 6: Reviewer #2 (Remarks to the Author): This manuscript uses structural and biochemical approaches to understand how partner proteins and intrinsically disordered regions (IDRs) impact RNA binding of FBF-2. The crystal structure of FBF-2 CT is novel and the proposed role of the CT in autoinhibition by intramolecular interaction with RBD is interesting. However, why this autoinhibition would be needed in vivo is less clear, especially in regard to the interaction with partner proteins. While the authors also mention this shortcoming, some attempt to address the biological consequences of t ...

In the case of LST-1 B LST-1 B (from UniProt P91820), the Kd [1] is given as 50 nM.

In the case of LST-1 A LST-1 A (from UniProt P91820), the Kd [1] is listed as 2100 nM.

B1: LST-1 A peptide (LST-1 residues 19-50) (peptide, UniProt P91820 19-50, looked up)
chain: STIAYSKSQHEAPKQLLQLRSEIKPLIPLNQP
notes: The tag was cleaved with Ulp1 protease; also called LST-1^19–50; source: E. coli, purified (Ni-NTA, HiTrap Q flow-through, Superdex 75); not shown: His6-SUMO, N-terminal, cleaved
With B1 the “RNA-binding affinity of FBF-2 RBD + CT for gld-1 FBEa RNA by EMSA in the presence of 150 µM LST-1 A” value [2] was 3 fold, the Kd [3] was 2100 nM and the Kd (FBF-2 RBD + CT L610A [4]) was 2100 nM and 2600 nM. For the same molecule, the Kd [5] was 2130 nM and 2020 nM and the Kd (FBF-2 RBD + CT L610A [6]) was 2400 nM.

B2: truncated FBF-2: FBF-2 lacking the C-terminal 26 residues (607-632), expressed in worms (protein, UniProt Q09312 1-606, looked up, fragment)
chain: MDQSKMRRTNQFRKTSQKPPSTGIDSYPTPAQSPMAQHETPMWDFNSLNPYFSMLNMNDGINYARHQQNHIVTSRPPTPLTDLMSLRSFQSFPNVFMPVSRSRTSSFIQSDTDSSRLESDDFSQNVRCFSADIDRSKSYGSSKHYHLKYSRPALSRNSRSFTRSNNVLPTWSLDSNGEMRSRLSLSEVLDSGDLMKFAVDKTGCQFLEKAVKGSLTSYQKFQLFEQVIGRKDDFLKLSTNIFGNYLVQSVIGISLATNDDGYTKRQEKLKNFISSQMTDMCLDKFACRVIQSSLQNMDLSLACKLVQALPRDARLIAICVDQNANHVIQKVVAVIPLKNWEFIVDFVATPEHLRQICSDKYGCRVVQTIIEKLTADSMNVDLTSAAQNLRERALQRLMTSVTNRCQELATNEYANYIIQHIVSNDDLAVYRECIIEKCLMRNLLSLSQEKFASHVVEKAFLHAPLELLAEMMDEIFDGYIPHPDTGKDALDIMMFHQFGNYVVQCMLTICCDAVSGRRQTKEGGYDHAISFQDWLKKLHSRVTKERHRLSRFSSGKKMIETLANLRSTHPIYELQSSGHDSFKTDYFSTASEHDGPELEKNGIEEG
For B2, the sterile progeny (C. elegans) is listed as “Approximately 11%”.

B3: full-length FBF-2: worms expressing full-length FBF-2 in an fbf-1 loss-of-function background (protein, UniProt Q09312 1-632, looked up)
chain: MDQSKMRRTNQFRKTSQKPPSTGIDSYPTPAQSPMAQHETPMWDFNSLNPYFSMLNMNDGINYARHQQNHIVTSRPPTPLTDLMSLRSFQSFPNVFMPVSRSRTSSFIQSDTDSSRLESDDFSQNVRCFSADIDRSKSYGSSKHYHLKYSRPALSRNSRSFTRSNNVLPTWSLDSNGEMRSRLSLSEVLDSGDLMKFAVDKTGCQFLEKAVKGSLTSYQKFQLFEQVIGRKDDFLKLSTNIFGNYLVQSVIGISLATNDDGYTKRQEKLKNFISSQMTDMCLDKFACRVIQSSLQNMDLSLACKLVQALPRDARLIAICVDQNANHVIQKVVAVIPLKNWEFIVDFVATPEHLRQICSDKYGCRVVQTIIEKLTADSMNVDLTSAAQNLRERALQRLMTSVTNRCQELATNEYANYIIQHIVSNDDLAVYRECIIEKCLMRNLLSLSQEKFASHVVEKAFLHAPLELLAEMMDEIFDGYIPHPDTGKDALDIMMFHQFGNYVVQCMLTICCDAVSGRRQTKEGGYDHAISFQDWLKKLHSRVTKERHRLSRFSSGKKMIETLANLRSTHPIYELQSSGHDSFKTDYFSTASEHDGPELEKNGIEEGSLMLEPRSNKSSVSVKFSSSGSHGDD
modifications: full-length
notes: worms expressing full-length FBF-2 in an fbf-1 loss-of-function background
For B3, the “germline progenitor region length” value (C. elegans; expressed as sole FBF protein, vs FBF-1) is given as “shorter germline progenitor regions than FBF-1” and the sterile progeny (C. elegans) is given as 0%.

B4: FBF-2 Y479A: FBF-2 Y479A expressed in animals (Kimble lab, unpublished) (protein, UniProt Q09312 1-632, looked up, variant Y479A)
Fem-3 mRNA-binding factor 2: MDQSKMRRTNQFRKTSQKPPSTGIDSYPTPAQSPMAQHETPMWDFNSLNPYFSMLNMNDGINYARHQQNHIVTSRPPTPLTDLMSLRSFQSFPNVFMPVSRSRTSSFIQSDTDSSRLESDDFSQNVRCFSADIDRSKSYGSSKHYHLKYSRPALSRNSRSFTRSNNVLPTWSLDSNGEMRSRLSLSEVLDSGDLMKFAVDKTGCQFLEKAVKGSLTSYQKFQLFEQVIGRKDDFLKLSTNIFGNYLVQSVIGISLATNDDGYTKRQEKLKNFISSQMTDMCLDKFACRVIQSSLQNMDLSLACKLVQALPRDARLIAICVDQNANHVIQKVVAVIPLKNWEFIVDFVATPEHLRQICSDKYGCRVVQTIIEKLTADSMNVDLTSAAQNLRERALQRLMTSVTNRCQELATNEYANYIIQHIVSNDDLAVYRECIIEKCLMRNLLSLSQEKFASHVVEKAFLHAPLELLAEMMDEIFDGAIPHPDTGKDALDIMMFHQFGNYVVQCMLTICCDAVSGRRQTKEGGYDHAISFQDWLKKLHSRVTKERHRLSRFSSGKKMIETLANLRSTHPIYELQSSGHDSFKTDYFSTASEHDGPELEKNGIEEGSLMLEPRSNKSSVSVKFSSSGSHGDD
In the case of B4, the germline phenotype (C. elegans) is given as “no defects were detected in germline stem cell self-; also recorded: defect in the sperm-to-oocyte switch”.

B5: FBF-2 L610A: FBF-2 L610A; attempts to generate animals were unsuccessful (protein, UniProt Q09312 1-632, looked up, variant L610A)
Fem-3 mRNA-binding factor 2: MDQSKMRRTNQFRKTSQKPPSTGIDSYPTPAQSPMAQHETPMWDFNSLNPYFSMLNMNDGINYARHQQNHIVTSRPPTPLTDLMSLRSFQSFPNVFMPVSRSRTSSFIQSDTDSSRLESDDFSQNVRCFSADIDRSKSYGSSKHYHLKYSRPALSRNSRSFTRSNNVLPTWSLDSNGEMRSRLSLSEVLDSGDLMKFAVDKTGCQFLEKAVKGSLTSYQKFQLFEQVIGRKDDFLKLSTNIFGNYLVQSVIGISLATNDDGYTKRQEKLKNFISSQMTDMCLDKFACRVIQSSLQNMDLSLACKLVQALPRDARLIAICVDQNANHVIQKVVAVIPLKNWEFIVDFVATPEHLRQICSDKYGCRVVQTIIEKLTADSMNVDLTSAAQNLRERALQRLMTSVTNRCQELATNEYANYIIQHIVSNDDLAVYRECIIEKCLMRNLLSLSQEKFASHVVEKAFLHAPLELLAEMMDEIFDGYIPHPDTGKDALDIMMFHQFGNYVVQCMLTICCDAVSGRRQTKEGGYDHAISFQDWLKKLHSRVTKERHRLSRFSSGKKMIETLANLRSTHPIYELQSSGHDSFKTDYFSTASEHDGPELEKNGIEEGSLMAEPRSNKSSVSVKFSSSGSHGDD
In the case of B5, the germline phenotype (C. elegans) is given as “dominant sterile”.
